Results taken from US20030113828.

Molecular target: integrin αIIbβ3 (wild type) (UniProt P08514)

Q: Syk truncation mutant (residues 1-330) was tested. Which “adhesion dependent phosphorylation of Vav1” value did it give?
A: Over expression of Syk(1-330) also inhibited adhesion dependent phosphorylation of Vav1
